This is an account of results in patent publication US20160159865A1 (CHILDREN S HOSPITAL AND RESEARCH CENTER AT OAKLAND, published 2016).

The test concerns the target T1, human factor H (human, UniProt P08603 19-1231).
T1 construct: Purified human factor H was used in the ELISA; also called fH; human fH
Nature of the test: ELISA, fHbp (2 µg/ml) on plate, human factor H titrated. In general terms: ELISA stands for enzyme-linked immunosorbent assay.

T1 sequence (P08603 19-1231 Y402H/T493R limits assumed): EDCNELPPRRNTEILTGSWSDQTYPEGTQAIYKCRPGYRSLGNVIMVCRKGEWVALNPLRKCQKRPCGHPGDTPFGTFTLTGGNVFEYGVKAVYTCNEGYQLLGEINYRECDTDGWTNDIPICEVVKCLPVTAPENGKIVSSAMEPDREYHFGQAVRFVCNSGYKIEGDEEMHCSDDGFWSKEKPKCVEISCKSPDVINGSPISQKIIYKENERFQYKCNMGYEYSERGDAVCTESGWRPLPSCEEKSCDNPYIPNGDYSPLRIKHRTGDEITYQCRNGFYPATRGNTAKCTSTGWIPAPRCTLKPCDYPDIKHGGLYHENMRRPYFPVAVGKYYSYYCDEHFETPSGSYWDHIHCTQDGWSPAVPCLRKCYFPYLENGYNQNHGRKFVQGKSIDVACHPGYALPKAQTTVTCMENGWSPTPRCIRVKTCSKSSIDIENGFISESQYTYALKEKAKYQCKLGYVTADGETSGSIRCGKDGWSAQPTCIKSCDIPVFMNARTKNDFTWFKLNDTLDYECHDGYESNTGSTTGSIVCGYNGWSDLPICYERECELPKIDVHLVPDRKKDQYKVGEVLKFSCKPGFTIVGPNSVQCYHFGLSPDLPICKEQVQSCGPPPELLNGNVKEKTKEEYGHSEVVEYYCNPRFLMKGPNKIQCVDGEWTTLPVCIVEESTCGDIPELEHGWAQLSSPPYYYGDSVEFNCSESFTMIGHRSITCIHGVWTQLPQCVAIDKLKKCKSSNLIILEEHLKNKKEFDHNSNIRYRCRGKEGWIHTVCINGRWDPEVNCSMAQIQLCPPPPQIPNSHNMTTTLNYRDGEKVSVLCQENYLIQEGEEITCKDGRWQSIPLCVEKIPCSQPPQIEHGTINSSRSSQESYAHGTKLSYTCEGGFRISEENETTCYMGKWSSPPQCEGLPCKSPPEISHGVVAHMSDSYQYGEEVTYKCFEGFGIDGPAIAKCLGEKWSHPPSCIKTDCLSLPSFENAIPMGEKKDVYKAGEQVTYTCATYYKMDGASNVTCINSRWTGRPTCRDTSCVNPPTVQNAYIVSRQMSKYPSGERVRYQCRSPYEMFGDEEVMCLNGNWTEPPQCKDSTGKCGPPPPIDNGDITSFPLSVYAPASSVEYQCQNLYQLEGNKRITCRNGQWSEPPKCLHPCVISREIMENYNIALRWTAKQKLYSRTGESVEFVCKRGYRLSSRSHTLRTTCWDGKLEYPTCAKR

B1: fHbp ID 79 H223R mutant (other)
chain: CSSGGGGSGSGGVAADIGTGLADALTTPLDHKDKGLKSLTLEDSIPQNGTLTLSAQGAEKTFKAGDKDNSLNTGKLKNDKISRFDFVQKIEVDGQTITLASGEFQIYKQDHSAVVALQIEKINNPDKIDSLINQRSFLVSGLGGEHTAFNQLPGGKAEYHGKAFSSDDAGGKLTYTIDFAAKQGHGKIEHLKTPEQNVELASAELKADEKSHAVILGDTRYGSEEKGTYRLALFGDRAQEIAGSATVKIGEKVHEIGIAGKQ
notes: Purified recombinant mutant
With B1, the binding result was “no binding (tested: human factor H 0.0012 to 20 µg/ml)”.
